The target in experiment [1] is T1, soluble mouse IL-11 receptor (mouse, UniProt Q64385 24-372).
T1 construct: interleukin-11 receptor, mouse (mIL-11R), soluble; also called mIL-11R; source: bought: Sino Biological, 50,075-M08H-100
T1 sequence (looked up): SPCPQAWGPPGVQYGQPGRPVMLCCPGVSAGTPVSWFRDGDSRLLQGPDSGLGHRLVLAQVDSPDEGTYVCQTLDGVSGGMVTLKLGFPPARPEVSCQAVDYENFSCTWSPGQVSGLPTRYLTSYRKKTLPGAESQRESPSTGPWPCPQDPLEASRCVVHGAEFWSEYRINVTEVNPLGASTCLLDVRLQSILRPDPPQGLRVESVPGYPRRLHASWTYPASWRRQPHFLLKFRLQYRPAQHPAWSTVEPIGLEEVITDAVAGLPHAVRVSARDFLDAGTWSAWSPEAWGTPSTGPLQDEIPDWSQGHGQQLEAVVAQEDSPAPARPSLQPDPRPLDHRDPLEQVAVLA
The experiment is described as follows: flow cytometry on cells; yeast-displayed IL-11 variants incubated with varying concentrations of soluble IL-11R or mIL-11R overnight at room temperature, washed with BPBS; receptor detected with anti-his AF647, display with anti-c-myc; apparent Kd from the fraction bound of the expressing population. The note with it: one partner purified.

The target in the next experiment is T2, mIL-11R-mFc (mouse, UniProt Q64385 24-372).
T2 construct: interleukin-11 receptor, mouse (mIL-11R), mouse Fc fusion; also called mouse IL-11R; source: bought: R&D Systems, 7405-MR
T2 sequence (looked up): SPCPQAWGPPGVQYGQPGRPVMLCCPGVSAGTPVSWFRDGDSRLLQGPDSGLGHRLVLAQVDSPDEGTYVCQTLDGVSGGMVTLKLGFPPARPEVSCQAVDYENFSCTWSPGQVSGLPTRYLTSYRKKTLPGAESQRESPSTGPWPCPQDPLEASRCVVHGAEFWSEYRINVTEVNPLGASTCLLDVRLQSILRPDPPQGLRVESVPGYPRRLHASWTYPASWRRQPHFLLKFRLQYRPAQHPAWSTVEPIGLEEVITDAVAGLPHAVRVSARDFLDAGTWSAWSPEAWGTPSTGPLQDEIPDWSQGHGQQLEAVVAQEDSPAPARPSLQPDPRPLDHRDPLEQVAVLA
The experiment is described as follows: BLI; mIL-11R-mFc loaded on antimouse Fc biosensors at 1.25 ug/mL in kinetics buffer; three-fold serial dilutions of WT IL-11 or enIL-11; apparent Kd; binding to enIL-11 performed by Antibody Solutions. The note with it: both partners purified. Background: Biolayer interferometry detects binding as a change in optical thickness at a sensor tip.

A further experiment deals with T3, biotinylated IL-11R-Fc (human, UniProt Q14626 24-370, biotin).
T3 construct: interleukin-11 receptor (IL-11R), human, Fc fusion; source: bought: Acro, ILR-H82F5
T3 sequence (looked up): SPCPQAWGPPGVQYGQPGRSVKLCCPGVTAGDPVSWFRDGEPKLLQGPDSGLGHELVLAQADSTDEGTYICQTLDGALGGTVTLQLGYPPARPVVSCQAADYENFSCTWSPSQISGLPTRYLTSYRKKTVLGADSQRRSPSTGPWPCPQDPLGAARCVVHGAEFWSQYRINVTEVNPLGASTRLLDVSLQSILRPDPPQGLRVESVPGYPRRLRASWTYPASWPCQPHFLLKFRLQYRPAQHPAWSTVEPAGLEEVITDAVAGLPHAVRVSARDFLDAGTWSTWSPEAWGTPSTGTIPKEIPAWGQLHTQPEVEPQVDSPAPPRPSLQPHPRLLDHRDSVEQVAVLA
The experiment is described as follows: BLI; biotinylated IL-11R-Fc loaded on streptavidin biosensors at 1.25 ug/mL in kinetics buffer; three-fold serial dilutions of WT IL-11 or enIL-11; apparent Kd; binding to enIL-11 performed by Antibody Solutions. The note with it: both partners purified.

B1: yeast-displayed wild-type human IL-11 (ligand, UniProt P20809 22-199, looked up)
chain: PGPPPGPPRVSPDPRAELDSTVLLTRSLLADTRQLAAQLRDKFPADGDHNLDSLPTLAMSAGALGALQLPGVLTRLRADLLSYLRHVQWLRRAGGSSLKTLEPELGTLQARLDRLLRRLQLLMSRLALPQPPPDPPAPPLAPPSSAWGGIRAAHAILGGLHLTLDWAVRGLLLLKTRL
notes: interleukin-11 (IL-11), human, residues Pro22 to Leu199 of the precursor; also called IL-11 WT; WT IL-11; not shown: c-myc, C-terminal, kept
With B1, the Kd in experiment [1] was 2.2 ± 0.3 nM.

B2: soluble recombinant wild-type human IL-11 (ligand)
chain: SPDPRAELDSTVLLTRSLLADTRQLAAQLRDKFPADGDHNLDSLPTLAMSAGALGALQLPGVLTRLRADLLSYLRHVQWLRRAGGSSLKTLEPELGTLQARLDRLLRRLQLLMSRLALPQPPPDPPAPPLAPPSSAWGGIRAAHAILGGLHLTLDWAVRGLLLLKTRL
notes: interleukin-11 (IL-11), human; also called WT IL-11; IL-11 WT; source: E. coli BL21, purified (cobalt beads), cleaved with TEV protease; not shown: His6, N-terminal, cleaved; thioredoxin, N-terminal, cleaved
For B2, the Kd in the experiment with mIL-11R-mFc is 11 ± 0.3 nM; with biotinylated IL-11R-Fc it was 9.5 ± 0.3 nM.

B3: enIL-11 (engineered human IL-11, GIPR RA S60T), soluble (designed binder)
chain: SPDPRAELGSIVLRTRSLLADTRQLAAQLRDKFPADGDHNLDSLPTPAMTARALGALQLPGVLTRLRADLLSYLRHVQWLRRAGGSSLKTLEPELGTLQARLDRLLRRLQLLMSRLALPQPPPDPPAPPLAPPSSAAGGIRAAHAILGGLHLTLDWAVRGLLLLKTRL
notes: interleukin-11 (IL-11), human; source: E. coli BL21, purified (cobalt beads), cleaved with TEV protease; not shown: His6, N-terminal, cleaved; thioredoxin, N-terminal, cleaved
With B3, the Kd with mIL-11R-mFc amounted to 0.16 ± 0.01 nM; with biotinylated IL-11R-Fc, 0.41 ± 0.01 nM.

B4: yeast-displayed mouse IL-11 wild-type (ligand, UniProt P47873 22-199, looked up)
chain: PGPPAGSPRVSSDPRADLDSAVLLTRSLLADTRQLAAQMRDKFPADGDHSLDSLPTLAMSAGTLGSLQLPGVLTRLRVDLMSYLRHVQWLRRAGGPSLKTLEPELGALQARLERLLRRLQLLMSRLALPQAAPDQPVIPLGPPASAWGSIRAAHAILGGLHLTLDWAVRGLLLLKTRL
notes: interleukin-11, mouse; also called mIL-11; mIL-11 WT; not shown: c-myc, C-terminal, kept
B4: the Kd in experiment [1] was determined as 3.1 ± 0.8 nM.

(Values after article PMC10658506, “An engineered interleukin‐11 decoy cytokine inhibits receptor signaling and proliferation in lung adenocarcinoma” (Bioengineering & Translational Medicine, 2023).)
